# Patent publication US20040063912A1
# How the values were obtained:
# FcRn = experiment: assay not stated; compared with EPO-Fc with native Fc
# [1] = target: purified, soluble huFcRn (human) (UniProt P55899); experiment: Biacore (SPR), purified soluble huFcRn
# EPO receptor (EpoR) = experiment: in vitro binding to EpoR; method not stated
substance,measurement,setting,value
"mutated EPO-Fc (Fc modified in three critical amino acid residues in the Fc domain: I253A, H310A, and H435A) (Fc fusion)",reduction in FcRn binding,FcRn,> 90%
IgG1 (antibody),Kd,[1],8 nM
native huEPO (from UniProt P01588 28-193) (ligand),Kd,EPO receptor (EpoR),0.2 nM
